Data on two proteins can be found in article PMC4243253 (Biochemical Journal, 2014).

This data set concerns the molecule itself. As to the kind of experiment: SEC. In general terms: In gel filtration, larger molecules generally elute earlier.

B1: Burkholderia cenocepacia kynurenine formamidase KynB (enzyme)
chain: MDTLWDISPPVSPATPVWPGDTPVAVERVWRMEAGSPVNVARLTLSPHTGAHCDAPLHYDADGAPIGAVPLDTYLGPCRVIHCIGAAPVVRPADVEAALDGVPPRVLLRTYARAAVEQWDSNFCAVAPDTVDLLAAHGVKLIGIDTPSLDPQESKTMDAHRRVRAHRMAILEGIVLDDVPPGDYELIALPLKFATLDASPVRAVLRALPAQAS
notes: also called BcKynB; KFase
Take B1: the “stoichiometry N” value amounted to 2.

B2: Pseudomonas aeruginosa kynurenine formamidase KynB, His-tagged (enzyme)
chain: MTSLRYWDISPALDPNTPTWPGDTPFQQEWAARLDEQCPVNVGRITLSPHTGAHVDGPLHYRADGLPIGQVPLDIYMGPCRVIHCIGANPLVTPEHLAGQLDDLPSRVLLRTFERVPANWPEGFCAIAPATIECLAERGVRLVGIDTPSLDPQHSKTLDAHHAVGRHGMAILEGVVLDDVPAGDYELLALPLKFTHLDASPVRAVLRALPTAE
notes: also called PaKynB; PaKynB-His; source: E. coli BL21(DE3)pLysS, purified (HisTrap, SEC Superdex75); not shown: His6, N-terminal, kept
Consider B2, for which the “stoichiometry N” value was 2.

As a reminder, the stoichiometry N is the number of molecules, sites or subunits per partner or assembly.
